Here are results for 141 substances from the supplement of paper PMC12042874.

± gives the uncertainty stated by the source.

The nature of this series: amyloid nucleation score (Sup35N fusion, yeast selection) (log enrichment); library NNK2; higher = more nucleation; inactive = no reads after selection. The gist of the method: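 The nucleation score, computed with DiMSum, is the log enrichment of output over input reads, centred on the mode score of non-aggregating sequences. Sequences with under 100 input reads were dropped. Reads were generated by Illumina sequencing of plasmid inserts from psi-negative yeast with Sup35N fused to peptides of 20 random codons, induced with 100 μM copper sulfate for 24 hours and grown 7 days at 30°C on medium lacking adenine and uracil.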
In turn, ALMLWKCKARTCISPQRRGV showed an amyloid nucleation score of 0.448 ± 0.4.

Regarding GKHIGSLSEWTMVHHDGARR, the amyloid nucleation score was found to be 1.21 ± 0.32.

LWNWRACARLG had an amyloid nucleation score of 1.25 ± 0.24.

Substance WPVHV registered an amyloid nucleation score of -1.38 ± 1.1.

GENSVLRSGNFKYKAWFCGG: the amyloid nucleation score was -0.342 ± 1.

FASLFPKAPERTEVSEPYRR registered an amyloid nucleation score of -0.76 ± 0.5.

CLEMFLKLCSLECARMKLPR returned an amyloid nucleation score of 5.673 ± 0.04.

Substance VWPLFAEDGCNANGVVNQVS returned an amyloid nucleation score of 0.955 ± 0.22.

In turn, RVYEVFGQKATGQMARRSVG yielded an amyloid nucleation score of 1.78 ± 0.34.

In the case of ILYSDFRMYSGRFLSEMVRI, the amyloid nucleation score was determined as 0.247 ± 0.39.

Regarding VMNDLILSKAVLGFELRLWG, the amyloid nucleation score was 4.23 ± 0.066.

In the case of DGSHLSKTDVK, the amyloid nucleation score came out at 0.113 ± 0.2.

In the case of LKGCQDLLLVDSGGSTTWYG, the amyloid nucleation score is -0.836 ± 0.63.

TFYSSWWSNSECYCS showed an amyloid nucleation score of 2.45 ± 0.1.

In the case of CRMFSEHSYRRSSLSVPGMN, the amyloid nucleation score result was “inactive”.

Turning to RGINVGGWLSLGFTGAVHSL, the amyloid nucleation score amounted to 3.4 ± 0.12.

For the substance VLPGVSFFTYRFKKF, the amyloid nucleation score result is “inactive”.

With ISGLETYLRSYWICIWSMWA, the amyloid nucleation score was 3.02 ± 0.15.

Substance STYSIIYV had an amyloid nucleation score of 0.831 ± 0.17.

RLLFSDCFLVFLPMGCFAFF registered an amyloid nucleation score of 3.69 ± 0.07.

In the case of CTCTDTEDKWVKSGYSRGAH, the amyloid nucleation score came out at 2.22 ± 0.079.

Substance YRIQKHWCQLS showed an amyloid nucleation score of -0.087 ± 0.76.

Take DVRRLLFLLLGQ: the amyloid nucleation score is -0.796 ± 0.4.

NINMWSLCRFLWDAFARR displayed an amyloid nucleation score of 0.378 ± 0.26.

Substance DYLVRGQEY gave an amyloid nucleation score of 0.357 ± 0.43.

Take NRIGDIGFSPNMCQAPNDVD: the amyloid nucleation score was found to be 0.095 ± 0.53.

In the case of LMVSRFVF, the amyloid nucleation score was -0.206 ± 0.76.

For NYYYIVLLYRSLLLMS, the amyloid nucleation score was -0.265 ± 0.41.

Regarding RMGFWSLGSSSYNWYKTCVL, the amyloid nucleation score is 0.043 ± 0.74.

Regarding VRNSSV, the amyloid nucleation score entry was “inactive”.

On to AFELSVTLCSTEMLQHRCIG, for which the amyloid nucleation score was -0.081 ± 1.1.

On to SLGALNKFPRILIVVRYRVC, for which the amyloid nucleation score result was “inactive”.

As to INVFSYSL, the amyloid nucleation score is 2.58 ± 0.089.

Turning to GSKALVSGGFVSGVKYGKAI, the amyloid nucleation score entry is “inactive”.

The substance AYPVES gave an amyloid nucleation score of 1.19 ± 0.23.

Turning to TDLSLWNTILRVAG, the amyloid nucleation score is 0.05 ± 0.31.

Take ILMRSYDFALGPNQCIIRAK: the amyloid nucleation score was 4.95 ± 0.074.

Take RKLGYFLRLRKKATHGRLLV: the amyloid nucleation score stood at 5.5 ± 0.067.

On to TQCRFRTSRVDICKIVKPGS, for which the amyloid nucleation score amounted to 0.177 ± 0.65.

On to DYLVSMTVNSASLFRYIERR, for which the amyloid nucleation score stood at 5.209 ± 0.029.

Regarding ISLAINIAPLLLCTESTEWG, the amyloid nucleation score was -0.133 ± 0.65.

For TDWVW, the amyloid nucleation score worked out at 0.593 ± 0.2.

Substance NMRSNRVSLVPDGMLRLSAN came in with an amyloid nucleation score of 1.39 ± 0.28.

CAKLGTSSRFIFE: the amyloid nucleation score was determined as 0.073 ± 1.1.

In turn, FFNLNQLMFKELSMRLGHRY had an amyloid nucleation score of 0.066 ± 0.74.

ALISSPANCAISWITCILVV gave an amyloid nucleation score of 5.947 ± 0.034.

For the substance ECVDCESIEMEAVSC, the amyloid nucleation score came to 1.26 ± 0.16.

For the substance FYRHCFVVTNKRAPSKSRSK, the amyloid nucleation score was 4.61 ± 0.11.

In turn, TTSQFGLGGICPDNSTGLLA returned an amyloid nucleation score of -1.31 ± 1.

Consider LIERDNTWRATSRCITIESG, for which the amyloid nucleation score stood at 1.17 ± 0.45.

AMAVLALHTVRSQLP displayed an amyloid nucleation score of 5.988 ± 0.037.

For the substance YVPPQWRIVDRNVSY, the amyloid nucleation score is 0.012 ± 1.

The substance AFGRTTKKDVCLFGYPKQVE showed an amyloid nucleation score of -0.235 ± 0.46.

For the substance RDSVCMTRLDMGLDCEWVFG, the amyloid nucleation score worked out at 1.57 ± 0.36.

As for VVLFWLNCRRVYFLGSKYRA, the amyloid nucleation score amounted to 0.331 ± 0.8.

For the substance NYAQATRMFFNLMKSWLKMR, the amyloid nucleation score is -1.02 ± 1.1.

For WMRSIWLSQHFLS, the amyloid nucleation score was 0.292 ± 0.41.

With FWQSSLDSS, the amyloid nucleation score was found to be 0.213 ± 0.38.

Substance KQIVFSANFDHRGGLVVLRW yielded an amyloid nucleation score of 3.08 ± 0.073.

KRLTPS registered an amyloid nucleation score of 0.155 ± 1.1.

In the case of RRICTGFIRLVGYVYYAAHL, the amyloid nucleation score is -0.29 ± 0.24.

For NIFRESEAERRALNKFYMSF, the amyloid nucleation score worked out at 0.04 ± 0.76.

Consider NLSRV, for which the amyloid nucleation score is -0.741 ± 0.34.

NTLSR gave an amyloid nucleation score of 5.654 ± 0.05.

Substance VSGFFSDHA came in with an amyloid nucleation score of -1.06 ± 1.1.

Substance STWVWMSFCVNLLDPHACGS registered an amyloid nucleation score of 7.542 ± 0.03.

Turning to NYVYSTCYALDQCQFKYNVQ, the amyloid nucleation score was determined as 0.655 ± 0.26.

The substance TGAIRGGSVQRVHSLINPRM registered an amyloid nucleation score of -0.414 ± 0.55.

As to SRWPLGNMCGKPVEMPEKWS, the amyloid nucleation score was determined as 0.836 ± 0.55.

As to VWLYCSEQDRCVMLASRELL, the amyloid nucleation score was 0.465 ± 0.34.

As for GHKDSEDGLNTKFFRRSN, the amyloid nucleation score result is “inactive”.

Turning to VWNYISLNEAM, the amyloid nucleation score is -0.946 ± 0.55.

ISRVSGGQTLPSGLVMG: the amyloid nucleation score was -0.326 ± 0.45.

As for SILSIYFDPYGCRL, the amyloid nucleation score came out at 0.164 ± 1.1.

Consider CEGCHATKYRVRSWS, for which the amyloid nucleation score is 1.01 ± 0.31.

In the case of RTFAKVLKSSYQRNLPSTDV, the amyloid nucleation score came to 0.267 ± 0.24.

EVGILVTVVYSGKWKVSRCM: the amyloid nucleation score was found to be 1.87 ± 0.48.

As for WGSSFR, the amyloid nucleation score stood at 0.592 ± 0.24.

The substance VSWDISMNEVADWVVGAGGA gave an amyloid nucleation score of 1.13 ± 0.42.

Regarding NTVWSFSSEWLFKQQLVCVR, the amyloid nucleation score was 0.091 ± 0.53.

In the case of MLWVWSLSQTLVRTKVRVLS, the amyloid nucleation score amounted to 0.024 ± 0.5.

In turn, IFSNIFSFV had an amyloid nucleation score of 3.55 ± 0.13.

For TMMSQVGMDR, the amyloid nucleation score stood at 0.377 ± 0.34.

Consider NWIQRQVL, for which the amyloid nucleation score entry is “inactive”.

In the case of RDMWKVNHGNTACIGSYRSV, the amyloid nucleation score was determined as 0.671 ± 0.35.

For EITFLCSGKSDSDMYVGFAS, the amyloid nucleation score was 2.08 ± 0.072.

As for CNRAQLNVSPNLDDMRKFGV, the amyloid nucleation score was -0.506 ± 1.

As to LLKGVASVQSTDAVRHMWSS, the amyloid nucleation score stood at 0.252 ± 0.8.

Take KGPDITEHTITRGPEGNSRY: the amyloid nucleation score was -0.17 ± 0.65.

With VVNVVSGYGAE, the amyloid nucleation score is 0.619 ± 0.19.

For EIMCLHKNALCFQCSTSGCA, the amyloid nucleation score is 7.52 ± 0.046.

VSNLTQVAEVRQSNGGVFCG: the amyloid nucleation score came to 0.189 ± 0.39.

In turn, ATYIGRSNVSRWVVRAMSSS gave an amyloid nucleation score of 5.25 ± 0.073.

Consider HVHGMYSGWCYDKTGQEKGM, for which the amyloid nucleation score is 0.624 ± 0.34.

In turn, FSNSPVISFGQ gave an amyloid nucleation score of -0.541 ± 1.

Take SLGHGKYMVCWGWYALGFYK: the amyloid nucleation score is -0.368 ± 0.28.

GGCSTRWHKDVYDNGDNGDF showed an amyloid nucleation score of -0.545 ± 0.63.

For the substance YIDLLGRVCHYSLGWLCYCM, the amyloid nucleation score was -1.05 ± 1.1.

YCFFKVKTDLKTMCELGSTA came in with an amyloid nucleation score of -0.122 ± 0.55.

CRSSGFRFTLRKWCWNVNEC: the amyloid nucleation score was -0.7 ± 0.76.

On to NRSTDAYFIILHICYTNGVY, for which the amyloid nucleation score is -0.429 ± 0.61.

For SSKTGWSHGIMVQPK, the amyloid nucleation score result was “inactive”.

LLIREMEHLFVEAKVENLRE came in with an amyloid nucleation score of 0.531 ± 0.33.

Consider ACSVNCLRECNR, for which the amyloid nucleation score entry is “inactive”.

Regarding ASRKSLPEWLWIAWRHASGT, the amyloid nucleation score turned out to be 1.29 ± 0.15.

As to YLNYNIMS, the amyloid nucleation score entry was “inactive”.

VNVSGSGSVPY registered an amyloid nucleation score of 0.741 ± 0.27.

As for EVYYTSMERCGG, the amyloid nucleation score was 1.36 ± 0.22.

In turn, RCVSRTR came in with an amyloid nucleation score of 0.147 ± 1.1.

DMVCRY yielded an amyloid nucleation score of -0.272 ± 0.36.

The substance RGCMEVWVLYQSNALSM came in with an amyloid nucleation score of 4.18 ± 0.071.

PYILRFRRDLRGFRI returned an amyloid nucleation score of 0.449 ± 0.56.

Substance IDCFIVISSMMSRVLYCGER had an amyloid nucleation score of 0.21 ± 0.25.

In turn, SAACQCLDFWCSGLGQSQGL gave an amyloid nucleation score of 6.59 ± 0.075.

For LLPRDALFPPIFVIISECVF, the amyloid nucleation score is -0.063 ± 0.45.

QTNGGEGQ: the amyloid nucleation score turned out to be 0.705 ± 0.24.

Regarding LFWELEM, the amyloid nucleation score came to 4.7 ± 0.091.

SFKLGSHVSDKKIGMDLCFT yielded an amyloid nucleation score of -0.361 ± 0.4.

IYSHESASWWMRRARSS came in with an amyloid nucleation score of 1.55 ± 0.25.

SILHSPLSVVYASNISCLF gave an amyloid nucleation score of 7.169 ± 0.066.

For the substance LKIQEPNRYW, the amyloid nucleation score is -0.945 ± 0.76.

Turning to AYLFHLFIIS, the amyloid nucleation score was -0.017 ± 0.48.

For the substance TRCGE, the amyloid nucleation score was -0.134 ± 0.25.

AWRMCTV returned an amyloid nucleation score of 0.302 ± 0.33.

The substance KKAVSACPLEYSVVINISGG returned an amyloid nucleation score of 7.985 ± 0.026.

FPRSGYITHLDCATR returned an amyloid nucleation score of -0.589 ± 0.55.

SLHMFLVIFSYLLVANRGKS yielded an amyloid nucleation score of 0.246 ± 0.65.

On to LGHAISAHVMIIICWKDVFL, for which the amyloid nucleation score was 5.08 ± 0.077.

With NYIVVARFYSRVVFFRV, the amyloid nucleation score entry was “inactive”.

In turn, KFSVSLICYVTASRYSNYRE showed an amyloid nucleation score of 0.362 ± 0.31.

TLIGKFRTNNFRSMVDAESK displayed an amyloid nucleation score of -0.59 ± 0.63.

For the substance MLFSNVLLCKLCIFA, the amyloid nucleation score was found to be 6.96 ± 0.055.

RKFFSIVRFCA: the amyloid nucleation score result was “inactive”.

Turning to WSVYKVLYCLTGFRFQRSRL, the amyloid nucleation score entry is “inactive”.

Take LLGMVNTQLKGNHSYTYKSG: the amyloid nucleation score was -1.14 ± 0.55.

CLKPFRHTFEFLYQVDFTEV came in with an amyloid nucleation score of -1.56 ± 1.1.

In turn, SRNRFHSYLMSRCNMWQLHY returned an amyloid nucleation score of 0.287 ± 0.33.

Substance KENDVNLD came in with an amyloid nucleation score of 1.5 ± 0.44.

The substance KPIIGGVSTERSLVIAGVHL yielded an amyloid nucleation score of 0.011 ± 0.79.

Take DFNLWPLC: the amyloid nucleation score was -0.373 ± 1.1.

Substance TRISGLGPDRDFSFRAASAK displayed an amyloid nucleation score of -0.446 ± 0.76.
